B1: SMOC2 (parent)
chain: PALETQPQGDEEDIASRYPTLWTE
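Note: lentivirally expressed fusions sorted by FACS into six bins by GFP to DsRed ratio, PSI derived from sequencing read proportions per bin multiplied by bin number.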

In the data set the parent is B1. Description: protein stability index of a GFP-peptide fusion (GPS, HEK-293T) (PSI 1-6); higher = more stable. Conditions: c terminus: a fixed tail appended.
On to PALETQPQGDKEDIASRYPTLWTE [E11K], for which the protein stability index was found to be 3.92.

As for PALETQPQGDQEDIASRYPTLWTE [E11Q], the protein stability index turned out to be 4.22.

Consider PALETQPQGDPEDIASRYPTLWTE [E11P], for which the protein stability index was found to be 4.82.

Regarding PALETQPQGDLEDIASRYPTLWTE [E11L], the protein stability index came out at 3.84.

In the case of PALETQPQGDAEDIASRYPTLWTE [E11A], the protein stability index came out at 3.79.

Consider PALETQPQGDGEDIASRYPTLWTE [E11G], for which the protein stability index turned out to be 4.04.

Regarding PALETQPQGDHEDIASRYPTLWTE [E11H], the protein stability index came to 3.41.

Consider PALETQPQGDDEDIASRYPTLWTE [E11D], for which the protein stability index stood at 4.21.

Turning to PALETQPQGDFEDIASRYPTLWTE [E11F], the protein stability index is 3.95.

Turning to PALETQPQGDIEDIASRYPTLWTE [E11I], the protein stability index turned out to be 3.36.

Regarding PALETQPQGDREDIASRYPTLWTE [E11R], the protein stability index was 3.98.

Consider PALETQPQGDCEDIASRYPTLWTE [E11C], for which the protein stability index was 4.43.

Turning to PALETQPQGDSEDIASRYPTLWTE [E11S], the protein stability index amounted to 4.38.

Turning to PALETQPQGDVEDIASRYPTLWTE [E11V], the protein stability index is 4.24.

Regarding PALETQPQGDMEDIASRYPTLWTE [E11M], the protein stability index stood at 3.59.

Turning to PALETQPQGDNEDIASRYPTLWTE [E11N], the protein stability index stood at 4.26.

In the case of PALETQPQGDTEDIASRYPTLWTE [E11T], the protein stability index was determined as 4.18.

For the variant PALETQPQGDWEDIASRYPTLWTE [E11W], the protein stability index was found to be 3.96.

For PALETQPQGDYEDIASRYPTLWTE [E11Y], the protein stability index was found to be 4.02.

Regarding PALETQPQGDEPDIASRYPTLWTE [E12P], the protein stability index turned out to be 4.33.

As to PALETQPQGDEFDIASRYPTLWTE [E12F], the protein stability index was 4.2.

Consider PALETQPQGDEIDIASRYPTLWTE [E12I], for which the protein stability index was 3.68.

On to PALETQPQGDEWDIASRYPTLWTE [E12W], for which the protein stability index turned out to be 3.39.

In the case of PALETQPQGDENDIASRYPTLWTE [E12N], the protein stability index was determined as 4.11.

For PALETQPQGDEKDIASRYPTLWTE [E12K], the protein stability index is 3.56.

In the case of PALETQPQGDETDIASRYPTLWTE [E12T], the protein stability index stood at 4.34.

Turning to PALETQPQGDECDIASRYPTLWTE [E12C], the protein stability index amounted to 4.12.

As for PALETQPQGDEGDIASRYPTLWTE [E12G], the protein stability index amounted to 2.63.

As for PALETQPQGDEHDIASRYPTLWTE [E12H], the protein stability index stood at 3.74.

As for PALETQPQGDESDIASRYPTLWTE [E12S], the protein stability index was 4.46.

Take PALETQPQGDEMDIASRYPTLWTE [E12M]: the protein stability index is 3.7.

Consider PALETQPQGDEDDIASRYPTLWTE [E12D], for which the protein stability index amounted to 4.41.

Regarding PALETQPQGDEADIASRYPTLWTE [E12A], the protein stability index came to 3.94.

As for PALETQPQGDEVDIASRYPTLWTE [E12V], the protein stability index came to 3.75.

Turning to PALETQPQGDERDIASRYPTLWTE [E12R], the protein stability index amounted to 3.93.

PALETQPQGDELDIASRYPTLWTE [E12L]: the protein stability index came to 3.68.

Turning to PALETQPQGDEQDIASRYPTLWTE [E12Q], the protein stability index turned out to be 4.42.

In the case of PALETQPQGDEYDIASRYPTLWTE [E12Y], the protein stability index stood at 3.75.

Take PALETQPQGDEEDIADRYPTLWTE [S16D]: the protein stability index was 4.76.

Regarding PALETQPQGDEEDIAHRYPTLWTE [S16H], the protein stability index was 3.96.

On to PALETQPQGDEEDIAFRYPTLWTE [S16F], for which the protein stability index was 4.61.

Consider PALETQPQGDEEDIAIRYPTLWTE [S16I], for which the protein stability index was 4.52.

For PALETQPQGDEEDIAARYPTLWTE [S16A], the protein stability index came to 4.5.

For the variant PALETQPQGDEEDIAVRYPTLWTE [S16V], the protein stability index was 5.14.

Regarding PALETQPQGDEEDIAERYPTLWTE [S16E], the protein stability index turned out to be 4.94.

As for PALETQPQGDEEDIATRYPTLWTE [S16T], the protein stability index worked out at 4.39.

For the variant PALETQPQGDEEDIAQRYPTLWTE [S16Q], the protein stability index worked out at 5.17.

Take PALETQPQGDEEDIACRYPTLWTE [S16C]: the protein stability index came to 4.63.

PALETQPQGDEEDIARRYPTLWTE [S16R]: the protein stability index was determined as 4.3.

For the variant PALETQPQGDEEDIALRYPTLWTE [S16L], the protein stability index turned out to be 4.81.

Regarding PALETQPQGDEEDIAWRYPTLWTE [S16W], the protein stability index came out at 3.99.

As to PALETQPQGDEEDIAYRYPTLWTE [S16Y], the protein stability index came out at 4.31.

For PALETQPQGDEEDIAGRYPTLWTE [S16G], the protein stability index amounted to 5.21.

Regarding PALETQPQGDEEDIAKRYPTLWTE [S16K], the protein stability index came to 4.18.

Regarding PALETQPQGDEEDIAMRYPTLWTE [S16M], the protein stability index worked out at 5.09.

For the variant PALETQPQGDEEDIAPRYPTLWTE [S16P], the protein stability index stood at 5.27.

On to PALETQPQGDEEDIANRYPTLWTE [S16N], for which the protein stability index came to 4.56.

Turning to PALETQPQGDEEDIRSRYPTLWTE [A15R], the protein stability index was found to be 4.53.

As to PALETQPQGDEEDINSRYPTLWTE [A15N], the protein stability index is 4.36.

As to PALETQPQGDEEDIFSRYPTLWTE [A15F], the protein stability index turned out to be 4.34.

With PALETQPQGDEEDICSRYPTLWTE [A15C], the protein stability index was 4.1.

PALETQPQGDEEDILSRYPTLWTE [A15L]: the protein stability index stood at 4.76.

In the case of PALETQPQGDEEDIQSRYPTLWTE [A15Q], the protein stability index came to 4.42.

Regarding PALETQPQGDEEDIYSRYPTLWTE [A15Y], the protein stability index amounted to 4.53.

In the case of PALETQPQGDEEDIESRYPTLWTE [A15E], the protein stability index was found to be 4.29.

Turning to PALETQPQGDEEDIHSRYPTLWTE [A15H], the protein stability index was 4.11.

Regarding PALETQPQGDEEDIMSRYPTLWTE [A15M], the protein stability index was found to be 4.67.

In the case of PALETQPQGDEEDIISRYPTLWTE [A15I], the protein stability index worked out at 4.57.

On to PALETQPQGDEEDISSRYPTLWTE [A15S], for which the protein stability index was 3.88.

As to PALETQPQGDEEDIKSRYPTLWTE [A15K], the protein stability index turned out to be 3.78.

As to PALETQPQGDEEDIVSRYPTLWTE [A15V], the protein stability index came out at 3.87.

Take PALETQPQGDEEDITSRYPTLWTE [A15T]: the protein stability index was 4.36.

Consider PALETQPQGDEEDIGSRYPTLWTE [A15G], for which the protein stability index was 4.63.

As for PALETQPQGDEEDIDSRYPTLWTE [A15D], the protein stability index amounted to 4.33.

As for PALETQPQGDEEDIWSRYPTLWTE [A15W], the protein stability index came to 4.14.

PALETQPCGDEEDIASRYPTLWTE [Q8C]: the protein stability index stood at 5.05.

For PALETQPHGDEEDIASRYPTLWTE [Q8H], the protein stability index was found to be 4.96.

In the case of PALETQPSGDEEDIASRYPTLWTE [Q8S], the protein stability index worked out at 4.74.

For PALETQPKGDEEDIASRYPTLWTE [Q8K], the protein stability index amounted to 3.9.

Consider PALETQPFGDEEDIASRYPTLWTE [Q8F], for which the protein stability index was 4.48.

Turning to PALETQPIGDEEDIASRYPTLWTE [Q8I], the protein stability index was 5.02.

Turning to PALETQPPGDEEDIASRYPTLWTE [Q8P], the protein stability index was 4.33.

Turning to PALETQPMGDEEDIASRYPTLWTE [Q8M], the protein stability index came to 4.87.

PALETQPAGDEEDIASRYPTLWTE [Q8A]: the protein stability index came out at 4.88.

In the case of PALETQPRGDEEDIASRYPTLWTE [Q8R], the protein stability index came to 4.6.

As for PALETQPVGDEEDIASRYPTLWTE [Q8V], the protein stability index stood at 5.17.

As to PALETQPLGDEEDIASRYPTLWTE [Q8L], the protein stability index is 4.05.

On to PALETQPNGDEEDIASRYPTLWTE [Q8N], for which the protein stability index amounted to 5.23.

Take PALETQPWGDEEDIASRYPTLWTE [Q8W]: the protein stability index worked out at 4.16.

Regarding PALETQPDGDEEDIASRYPTLWTE [Q8D], the protein stability index came out at 5.29.

Turning to PALETQPGGDEEDIASRYPTLWTE [Q8G], the protein stability index worked out at 3.6.

As for PALETQPEGDEEDIASRYPTLWTE [Q8E], the protein stability index worked out at 5.1.

With PALETQPTGDEEDIASRYPTLWTE [Q8T], the protein stability index was found to be 4.86.

Regarding PALETQPYGDEEDIASRYPTLWTE [Q8Y], the protein stability index amounted to 3.89.
